Where two headings read alike, the source gives them in different places. Bridge positions count the residues as written; N and C are the ends. Square brackets hold non-standard residues; d marks the D form. Ends that are not written are not given here.
T1: Duffy Antigen Receptor for Chemokines (DARC) (human), Q16570
T1 chain: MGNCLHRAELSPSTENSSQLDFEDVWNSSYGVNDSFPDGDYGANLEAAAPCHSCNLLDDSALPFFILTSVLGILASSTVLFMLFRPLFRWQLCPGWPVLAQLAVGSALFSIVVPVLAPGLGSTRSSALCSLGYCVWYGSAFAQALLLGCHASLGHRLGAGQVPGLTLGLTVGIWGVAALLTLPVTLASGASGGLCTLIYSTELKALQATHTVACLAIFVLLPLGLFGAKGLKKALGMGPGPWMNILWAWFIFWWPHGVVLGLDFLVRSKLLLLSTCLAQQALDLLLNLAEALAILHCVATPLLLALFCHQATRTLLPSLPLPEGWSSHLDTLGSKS

T2: CXCR4, P61073
T2 chain: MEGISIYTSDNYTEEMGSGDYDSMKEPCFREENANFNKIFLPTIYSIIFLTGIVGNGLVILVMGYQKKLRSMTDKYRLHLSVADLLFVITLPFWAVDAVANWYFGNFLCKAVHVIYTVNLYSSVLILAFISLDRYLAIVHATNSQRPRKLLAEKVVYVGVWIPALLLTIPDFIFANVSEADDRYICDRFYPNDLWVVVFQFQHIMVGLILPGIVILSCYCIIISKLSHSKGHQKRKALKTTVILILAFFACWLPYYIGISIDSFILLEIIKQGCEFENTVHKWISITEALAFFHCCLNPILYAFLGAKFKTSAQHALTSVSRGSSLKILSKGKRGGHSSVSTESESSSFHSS

T3: Duffy Antigen Receptor for Chemokines (DARC) (human, UniProt Q16570 1-336)
T3 construct: whole, on cells
T3 sequence (looked up): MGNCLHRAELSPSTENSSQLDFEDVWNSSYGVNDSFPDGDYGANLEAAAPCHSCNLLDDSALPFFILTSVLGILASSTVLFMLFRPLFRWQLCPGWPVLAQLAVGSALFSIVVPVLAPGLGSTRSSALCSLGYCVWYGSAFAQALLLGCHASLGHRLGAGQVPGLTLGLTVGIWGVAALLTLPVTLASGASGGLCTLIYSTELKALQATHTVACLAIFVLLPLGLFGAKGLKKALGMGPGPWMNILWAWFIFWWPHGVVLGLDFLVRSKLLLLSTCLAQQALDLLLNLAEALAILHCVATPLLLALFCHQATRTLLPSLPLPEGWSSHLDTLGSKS

T4: Duffy Antigen Receptor for Chemokines (DARC) (human) (UniProt Q16570)
T4 sequence (looked up): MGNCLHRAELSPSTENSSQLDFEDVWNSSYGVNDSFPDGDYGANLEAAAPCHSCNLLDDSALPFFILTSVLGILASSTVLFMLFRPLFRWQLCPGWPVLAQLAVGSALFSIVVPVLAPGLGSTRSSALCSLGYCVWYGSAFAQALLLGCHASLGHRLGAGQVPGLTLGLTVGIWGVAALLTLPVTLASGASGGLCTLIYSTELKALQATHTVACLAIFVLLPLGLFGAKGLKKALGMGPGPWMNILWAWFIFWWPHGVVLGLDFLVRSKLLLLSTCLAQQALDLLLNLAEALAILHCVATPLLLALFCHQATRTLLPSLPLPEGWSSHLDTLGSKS

B1: LRD peptide 2(1-15)[MCP-1] (peptide)
chain: [dV][dA][dE][dK][dP][dC][dK][dS][dS][dT][dI][dR][dR][dY][dS]
B2: peptide 3(3-12)[MCP-1] (peptide)
peptide: CADPKQKWVQ
notes: also called Pep3[3-12]; Pep3(3-12)[MCP-1]
B3: peptide 3(1-6)[MCP-1] (peptide)
peptide: EICADP
B4: peptide 3(7-12)[MCP-1] (peptide)
peptide: KQKWVQ
notes: also called Pep3[7-12]; KQKWVQ
B5: Leu4peptide 3(1-12)[MCP-1] (peptide)
peptide: EICLDPKQKWVQ
B6: Ser7peptide 3(1-12)[MCP-1] (peptide)
peptide: EICADPSQKWVQ
notes: Mutant of peptide 3; also called Ser7pep3
B7: Ile11peptide 3(1-12)[MCP-1] (peptide)
peptide: EICADPKQKWIQ
B8: Leu4Ile11peptide 3(1-12)[MCP-1] (peptide)
peptide: EICLDPKQKWIQ
notes: also called Leu4Ile11pep3; Leu4Ile11peptide 3[MCP-1]
B9: Ser7Glu8Glu9peptide 3(1-12)[MCP-1] (peptide)
peptide: EICADPSEEWVQ
modifications: not fully specified
notes: also called Ser7Glu8Glu9pep3
B10: SEE (peptide)
peptide: SEE
B11: CRD-Cys13Leu4Ile11peptide 3(3-12)[MCP-1] (peptide)
peptide: [dC][dQ][dI][dW][dK][dQ][dK][dP][dD][dL][dC]
modifications: disulfide 1-11
B12: WIQ (peptide)
peptide: WIQ
B13: CRD-Cys13pep3[3-12] (peptide)
peptide: [dC][dQ][dV][dW][dK][dQ][dK][dP][dD][dA][dC]
modifications: disulfide 1-11 (inferred); not fully specified; printed as -CQVWKQKPDAC--

Columns and labels:
[1] = target: T1, Duffy Antigen Receptor for Chemokines …; assay: Duffy binding, LRD against LFL peptide 2(1-15)[MCP-1]
[2] = target: T1, Duffy Antigen Receptor for Chemokines …; assay: DARC binding; settings: modification not given
[3] = target: T1, Duffy Antigen Receptor for Chemokines …; assay: Duffy binding
CXCR4, P61073 = target: T2, CXCR4, P61073; assay: method not described; given as 'affinity constant'
CCR5, P51681 = assay: method not described; given as 'affinity constant'
[4] = target: T3, Duffy Antigen Receptor for Chemokines …; assay: estimated ka for binding to red blood cells divided by average inhibitory ED50 (THP-1 migration)
Method: Counts associated with the cells are then determined by gamma-counting scintigraphy. […] Furthermore, Scatchard analysis confirms the presence of a single high affinity binding site with 500–1000 copies per cell, consistent with the known properties of DARC.
The DARC specificity ratio is also determined. The DARC specificity ratio is defined as the estimated ka for association with DARC divided by the $ED50$ for biological activity. […] Thus, it may be difficult to achieve biologically active (as a chemokine inhibitor) concentrations of these peptides in vivo without further modifications of the peptide.
Footnotes [a]'CC-specificity' is the average inhibitory ED$50$ versus SDF1 and IL8 divided by average inhibitory ED$50$ versus MCP-1 and MIP1α. [b]'Duffy selectivity' is the estimated ka for binding to red blood cells divided by average inhibitory ED$50$ versus each of the chemokines (except for peptide 2; see footnote d below). [c]'Average ED$50$' is the average inhibitory ED$50$ for inhibition of THP-1 migration induced by each of the chemokines (except for peptide 2; see footnote e below). [d]For the peptide 2 family, the 'average ED$50$' is the estimated ka for binding to THP-1 cells. [e]For the peptide 2 family, the 'Duffy selectivity' is calculated as the ka for binding to red blood cells divided by the ka for binding THP1-1 cells. [f]For tripeptide derivatives so marked, the peptide is highly specific for one of the four exemplary chemokines.

[5] = target: chemokine receptors on THP-1 cells; assay: cell-based or functional assay
[6] = target: T4, Duffy Antigen Receptor for Chemokines (DARC) (human); assay: estimated ka for binding to red blood cells divided by average inhibitory ED50 (THP-1 migration)
[7] = target: chemokine receptors on THP-1 cells; assay: binding to chemokine receptors on THP-1 cells; given as 'association constant'
[8] = target: chemokine receptors on THP-1 cells; assay: cell-based or functional assay; remark: listed apart in the source
[9] = target: T4, Duffy Antigen Receptor for Chemokines (DARC) (human); assay: DARC binding on red blood cells; given as 'association constant'

CCR5, P51681, sequence (P51681 whole entry): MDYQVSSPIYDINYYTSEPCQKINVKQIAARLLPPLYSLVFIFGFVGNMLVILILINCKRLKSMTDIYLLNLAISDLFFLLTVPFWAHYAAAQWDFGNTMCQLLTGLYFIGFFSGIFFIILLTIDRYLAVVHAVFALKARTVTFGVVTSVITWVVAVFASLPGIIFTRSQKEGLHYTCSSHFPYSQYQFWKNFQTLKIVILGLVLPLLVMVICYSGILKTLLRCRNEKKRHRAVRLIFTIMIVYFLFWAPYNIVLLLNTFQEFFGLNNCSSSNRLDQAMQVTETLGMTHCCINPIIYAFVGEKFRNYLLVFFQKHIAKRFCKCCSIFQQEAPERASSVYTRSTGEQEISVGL

Row | Binder | Duffy selectivity [4] [ratio] | ED50 for inhibition of THP-1 migration versus IL8 [5] [µM] | ED50 for inhibition of THP-1 migration versus MCP1 [5] [µM] | ED50 for inhibition of THP-1 migration versus MIP1α [5] [µM] | ED50 for inhibition of THP-1 migration versus SDF1α [5] [µM] | average ED50 for inhibition of THP-1 migration induced by each of the chemokines [5] [µM] | also measured
1 | B1 |  |  |  |  |  |  | fold decrease in Duffy binding against the LFL peptide [1]: 100 fold; Kd [2]: 18 µM; Kd [3]: 25 µM; Kd (CXCR4, P61073): < 100 nM; Kd (CCR5, P51681): < 100 nM
2 | B2 | 1.21 | 9 | 8 | 7 | 9 | 8 | 
3 | B3 |  | 17 | 33 | 25 | 19 | 24 | Duffy selectivity [6]: 5.32
4 | B4 | 2.94 | 6 | 7 | 5 | 6 | 6 | 
5 | B5 |  | 3 | 8 | 7 | 3 | 5 | 
6 | B6 | 2 | 3 | 7 | 6 | 4 | 5 | 
7 | B7 |  | 2 | 6 | 4 | 7 | 5 | 
8 | B8 | 37.8 | 3 | 2 | 1 | 3 | 2 | inhibition of MCP-1 induced migration [5]: 1 µM
9 | B9 | 0.59 | 9 | 7 | 2 | 5 | 6 | 
10 | B10 |  |  |  | 6 |  |  | % inhibition of migration induced by MIP1α at 100 µM tripeptide [5]: 65%; ED50 for inhibition of THP-1 migration induced by the one chemokine it is specific for (MIP1α) [5]: 0.8 µM
11 | B11 |  |  |  |  |  |  | Kd [7]: 100 to 500 nM; ED50 for inhibition of MCP-1 induced THP-1 migration [8]: 1 nM; average ED50 for inhibition of THP-1 migration induced by each of the chemokines [8]: 0.1 µM; Duffy selectivity [6]: > 100; Kd [9]: 90 µM
12 | B12 |  |  |  |  |  | 2 | 
13 | B13 |  |  |  |  |  | 0.8 | Duffy selectivity [6]: 8.82

Source: US7067117 (CAMBRIDGE UNIVERSITY TECHNICAL SERVICES, dated 2006)
